Reference: patent US20110144037A1 (BOARD OF REGENTS OF THE UNIVERSITY OF OKLAHOMA, published 2011)
Where no end group is shown, it is not given here. [ ]: non-standard residue; d: D form. Pip = O=C(O)[C@@H]1CCCCN1; AEEA = NCCOCCOCC(=O)O

T1: antiplasmin-cleaving enzyme (APCE) (human, UniProt Q12884 24-760, Natural plasma glycoprotein; glycans are not carried by the letters. The active enzyme is known as a homodimer; one chain is given.)
T1 construct: The range 24-760 is derived from the statement that APCE lacks the first 23 residues of FAP; also called α2-antiplasmin cleaving enzyme; APCE/FAP
T1 sequence: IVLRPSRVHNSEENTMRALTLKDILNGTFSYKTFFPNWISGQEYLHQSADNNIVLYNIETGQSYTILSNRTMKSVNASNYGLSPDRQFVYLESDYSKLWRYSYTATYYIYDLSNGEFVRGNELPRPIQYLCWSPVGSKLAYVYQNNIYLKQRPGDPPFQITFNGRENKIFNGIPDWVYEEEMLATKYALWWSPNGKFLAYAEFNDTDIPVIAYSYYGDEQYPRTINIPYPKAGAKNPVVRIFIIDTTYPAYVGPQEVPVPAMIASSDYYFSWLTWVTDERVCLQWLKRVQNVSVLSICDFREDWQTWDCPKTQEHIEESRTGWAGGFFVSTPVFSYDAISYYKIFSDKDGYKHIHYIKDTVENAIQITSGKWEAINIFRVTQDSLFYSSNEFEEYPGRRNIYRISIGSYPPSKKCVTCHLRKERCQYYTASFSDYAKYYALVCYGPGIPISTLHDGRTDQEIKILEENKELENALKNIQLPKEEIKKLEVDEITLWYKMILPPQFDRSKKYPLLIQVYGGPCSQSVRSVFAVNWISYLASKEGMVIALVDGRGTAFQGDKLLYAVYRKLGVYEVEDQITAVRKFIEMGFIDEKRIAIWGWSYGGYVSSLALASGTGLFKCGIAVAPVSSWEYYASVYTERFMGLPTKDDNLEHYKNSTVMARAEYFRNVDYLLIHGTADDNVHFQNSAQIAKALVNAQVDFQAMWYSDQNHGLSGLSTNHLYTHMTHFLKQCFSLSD

B1: FR-peg-G-pipecolinyl-NQEQV (peptide)
peptide: FR[AEEA]G[Pip]NQEQV-OH
modifications: N-terminus assumed
SMILES: CC(C)[C@H](NC(=O)[C@H](CCC(N)=O)NC(=O)[C@H](CCC(=O)O)NC(=O)[C@H](CCC(N)=O)NC(=O)[C@H](CC(N)=O)NC(=O)[C@@H]1CCCCN1C(=O)CNC(=O)COCCOCCNC(=O)[C@H](CCCNC(=N)N)NC(=O)[C@@H](N)Cc1ccccc1)C(=O)O
B2: FG-peg-G-pipecolinyl-NQEQV (peptide)
peptide: FG[AEEA]G[Pip]NQEQV-OH
modifications: N-terminus assumed
SMILES: CC(C)[C@H](NC(=O)[C@H](CCC(N)=O)NC(=O)[C@H](CCC(=O)O)NC(=O)[C@H](CCC(N)=O)NC(=O)[C@H](CC(N)=O)NC(=O)[C@@H]1CCCCN1C(=O)CNC(=O)COCCOCCNC(=O)CNC(=O)[C@@H](N)Cc1ccccc1)C(=O)O
B3: FR-peg-G-pipecolinyl-NQGQV (peptide)
peptide: FR[AEEA]G[Pip]NQGQV-OH
modifications: N-terminus assumed
SMILES: CC(C)[C@H](NC(=O)[C@H](CCC(N)=O)NC(=O)CNC(=O)[C@H](CCC(N)=O)NC(=O)[C@H](CC(N)=O)NC(=O)[C@@H]1CCCCN1C(=O)CNC(=O)COCCOCCNC(=O)[C@H](CCCNC(=N)N)NC(=O)[C@@H](N)Cc1ccccc1)C(=O)O
B4: FRQLTS-G pipecolinyl-NQEQV (peptide)
peptide: FRQLTSG[Pip]NQEQV-OH
modifications: N-terminus assumed
SMILES: CC(C)C[C@H](NC(=O)[C@H](CCC(N)=O)NC(=O)[C@H](CCCNC(=N)N)NC(=O)[C@@H](N)Cc1ccccc1)C(=O)N[C@H](C(=O)N[C@@H](CO)C(=O)NCC(=O)N1CCCC[C@H]1C(=O)N[C@@H](CC(N)=O)C(=O)N[C@@H](CCC(N)=O)C(=O)N[C@@H](CCC(=O)O)C(=O)N[C@@H](CCC(N)=O)C(=O)N[C@H](C(=O)O)C(C)C)[C@@H](C)O

Columns and labels:
[1] = molecular target: dipeptidyl peptidase IV (DPPIV); experiment: ratio of Ki for DPPIV to Ki for APCE/FAP
[2] = molecular target: dipeptidyl peptidase IV (DPPIV); experiment: inhibition of DPPIV activity, AMC fluorogenic substrate
[3] = molecular target: T1, antiplasmin-cleaving enzyme (APCE); experiment: inhibition of APCE activity, AMC fluorogenic substrate
[4] = molecular target: T1, antiplasmin-cleaving enzyme (APCE); experiment: inhibition of APCE activity, AMC fluorogenic substrate, competitive fit
Protocol: Enzyme assays. APCE or DDPIV was incubated in 25 mM sodium phosphate buffer, pH 7.5, containing 1.0 mM EDTA and 4% methanol in a total volume of 200 μl for 20 min at 22° C., using fluorescent substrates […]-AMC (SEQ ID NO.:4) (12.5-100 μM); […]-AMC (SEQ ID NO.:5) (12.5-100 μM); Z-Gly-Pro-AMC (25-200 μM); or GP-AMC (62.5-1000 μM). […] Fluorescence was monitored with time at excitation and emission wavelengths of 360 and 460 nm using a black-sided, 96-well plate in a BIO-TEK FL600 fluorescence plate reader. For standard curves, dilutions of AMC (7-amino-4-methylcoumarin) were prepared in the same assay buffer and corresponding fluorescence was measured. The substrates in five different concentrations were mixed with four different concentrations of inhibitors around the expected Ki values; the enzyme was added and enzymatically released AMC fluorescence was recorded. Competitive inhibition was established by Lineweaver-Burk plot. Therefore, enzyme kinetic parameters were computed by fitting data to the following equation, employing the program PRISM, GraphPad: […]

Sequence of dipeptidyl peptidase IV (DPPIV) (P27487 29-766): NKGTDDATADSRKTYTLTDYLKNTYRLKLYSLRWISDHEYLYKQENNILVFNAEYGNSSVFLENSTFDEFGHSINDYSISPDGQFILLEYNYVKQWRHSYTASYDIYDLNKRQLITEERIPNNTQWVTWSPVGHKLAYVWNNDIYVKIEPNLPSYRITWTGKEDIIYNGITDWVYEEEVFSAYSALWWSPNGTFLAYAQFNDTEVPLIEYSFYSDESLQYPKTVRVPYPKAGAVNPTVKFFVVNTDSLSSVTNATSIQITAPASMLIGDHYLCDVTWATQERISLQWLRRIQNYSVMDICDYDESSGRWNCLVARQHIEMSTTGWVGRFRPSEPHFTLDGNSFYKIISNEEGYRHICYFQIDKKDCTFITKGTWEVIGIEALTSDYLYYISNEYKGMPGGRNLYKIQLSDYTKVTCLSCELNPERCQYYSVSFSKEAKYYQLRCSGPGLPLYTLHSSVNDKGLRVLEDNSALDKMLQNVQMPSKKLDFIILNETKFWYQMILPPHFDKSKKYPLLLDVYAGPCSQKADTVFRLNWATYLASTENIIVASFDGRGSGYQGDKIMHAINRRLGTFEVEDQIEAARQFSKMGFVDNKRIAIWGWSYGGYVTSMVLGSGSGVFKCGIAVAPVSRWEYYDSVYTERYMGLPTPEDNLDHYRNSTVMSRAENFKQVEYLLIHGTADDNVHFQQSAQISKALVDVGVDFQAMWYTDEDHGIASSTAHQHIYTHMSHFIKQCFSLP

Row | Molecule | Selectivity, Ki (DPPIV)/Ki (APCE/FAP) [1] | Ki [2] [nM] | Ki [3] [nM] | Ki [4] [nM]
1 | Ac-Arg-peg-Gly-L-boroPro (peptide) | 244 | 440 | 1.8 | –
2 | Ac-Arg-peg-D-Ala-DL(50:50%)-boroPro (peptide) | 1180 | 11200 | 9.5 | –
3 | Ac-Arg-peg-Gly-DL-boroPro (peptide) | 371 | 1150 | 3.1 | –
4 | Ac-Arg-peg-D-Asp-L-boroPro (peptide) | 5.2 | 7130 | 1380 | –
5 | Ac-Arg-peg-D-Ala-D-boroPro (peptide) | 108 | 20500 | 189 | –
6 | FR-peg-G-piperidide (peptide) | – | – | – | 264000
7 | Ac-Arg-peg-D-Ala-DL(75:25%)-boroPro (peptide) | – | – | 18.3 | –
8 | Ac-Arg-Gly-Gly-L-boroPro (peptide) | 18.7 | 322 | 17.2 | –
9 | Ac-Arg-peg-Ser-Gly-L-boroPro (peptide) | 319 | 861 | 2.7 | –
10 | FG-peg-G-pyrrolidide (peptide) | – | – | – | 703000
11 | Ac-Arg-peg-D-Ala-DL(25:75%)-boroPro (peptide) | – | – | 7.7 | –
12 | Ac-Arg-(8-amino-3,6-dioxaoctanoyl)-D-Ala-L-boroPro (peptide) | 1080 | 6130 | 5.7 | –
13 | Ac-Arg-Gly-Gly-DL-boroPro (peptide) | 14.9 | 341 | 22.9 | –
14 | FR-peg-G-pyrrolidide (peptide) | – | – | – | 67700
15 | Ac-Gly-L-boroPro (peptide) | 15.2 | 314 | 20.7 | –
16 | FR-peg-G-[s]fluoropyrrolidide (peptide) | – | – | – | 55300
17 | FR-peg-G-[r]fluoropyrrolidide (peptide) | – | – | – | 53800
18 | B1 | – | – | – | 14800
19 | B2 | – | – | – | 57100
20 | B3 | – | – | – | 14500
21 | B4 | – | – | – | 14000
